Target: T1, ADR-1 dsRBD2 mutant (ds2) (Caenorhabditis elegans, UniProt Q9U3D6 1-964, K584E;K585A;K588A)
T1 sequence: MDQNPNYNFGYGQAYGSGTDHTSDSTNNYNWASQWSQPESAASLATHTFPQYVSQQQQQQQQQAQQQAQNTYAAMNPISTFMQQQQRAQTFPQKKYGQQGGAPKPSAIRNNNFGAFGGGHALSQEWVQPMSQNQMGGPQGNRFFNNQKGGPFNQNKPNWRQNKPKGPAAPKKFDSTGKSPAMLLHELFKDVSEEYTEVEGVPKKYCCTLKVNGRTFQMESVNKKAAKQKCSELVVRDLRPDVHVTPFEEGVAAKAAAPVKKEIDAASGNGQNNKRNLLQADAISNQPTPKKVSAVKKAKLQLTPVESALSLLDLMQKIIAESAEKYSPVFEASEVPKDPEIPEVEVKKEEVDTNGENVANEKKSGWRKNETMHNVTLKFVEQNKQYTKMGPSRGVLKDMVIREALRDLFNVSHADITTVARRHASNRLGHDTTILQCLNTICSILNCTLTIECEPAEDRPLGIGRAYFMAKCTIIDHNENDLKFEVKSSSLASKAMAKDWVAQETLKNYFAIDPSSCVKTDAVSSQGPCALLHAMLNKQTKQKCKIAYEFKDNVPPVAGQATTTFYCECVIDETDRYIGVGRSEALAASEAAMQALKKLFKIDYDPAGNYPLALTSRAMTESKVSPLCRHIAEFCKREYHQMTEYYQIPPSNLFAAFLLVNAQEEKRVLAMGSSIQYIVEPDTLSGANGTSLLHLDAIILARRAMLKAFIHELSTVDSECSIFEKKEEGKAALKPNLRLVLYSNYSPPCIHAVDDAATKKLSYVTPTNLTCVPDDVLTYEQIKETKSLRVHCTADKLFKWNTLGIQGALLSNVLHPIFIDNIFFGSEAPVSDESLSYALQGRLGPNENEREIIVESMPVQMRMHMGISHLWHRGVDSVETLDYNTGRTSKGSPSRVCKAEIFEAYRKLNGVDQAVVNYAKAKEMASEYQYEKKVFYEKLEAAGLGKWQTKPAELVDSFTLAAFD
Assay: EMSA; apparent Kd; text calls binding similar to WT; EMSA: 20 pM dsRNA, 50 mM KCl, 10 mM Tris-HCl pH 8.0, 10% glycerol, 1 mM MgCl2, 0.5 mM DTT, on ice 30 min; native 6% gel, 0.5x TBE, 4 C
Settings: protein: recombinant; tags: N-terminal 6xHis (TEV site); label: 5' 32P on ssRNAs (PNK); imperfect duplex; printed strands 45 and 46 nt

B1: lam-2 3'UTR 46 bp dsRNA (dsRNA)
RNA 1: AGACACACAUACAAAAUUUACAAAAAUUGUUAAUUGACAAAAUAC
RNA 2: GUGUUUUGCCAAUUAACGAUUUUUUGUAAAUUUUAUAUGUGUCUCU
  Kd: 4.67 ± 0.7 nM
